Data published in the DeepSol protein solubility set.

assay: soluble on expression in E. coli; label from the status in PepcDB or PDB records

Row | Sequence | soluble on expression in E. coli
1 | MSLHRLQKVVRHIAQTEIMPRFLNTPSRRKEDGSMLSEADIAAQTAFAAALPLLIDCPMLGEEMSRQEQSALWEQYSGEKGLWIVDPIDGTNNFVNGLPHFAVSVAFVRNGRAELGVIYNPVSGECFYAERGQGAFLNGTRLPLRLVDKKLNEAIAGVEIKYLRSGKLSSRMSTLAPFGTIRSMGSSTLDWCYLACGRYDVYVHGGQKLWDYAAGALIFEEAGGRLTTLEGDGFWSGEHVFKRSVVAALEPKLFERWVGWIRENQEGHHHHHH | soluble
2 | MSLHSTPAPVASPLPSALDEAARLAVLHGLCLLDSPPDPVFDTIAAMAARMLGTEIALVSLVDEHRQWFKARVGLEAPETPRKHAFCAHALRSDDVLVIPDALLDPRFCNNPLVLGAPHIRFYAGAPLKLRDGHTIGTLCVIGTSPRAGLDAEQRIQLEGLRDLAVLRVENLRSSTYRNGPTGLPNRARFSEDLDAVLLQRTADSAATAIAVDLCGSDYFRDMVKALGWDYADGYVALAYKRLISKLPAGTALYRLDTTTFAFMVTTADPLRLSALCSKISKGFVAPLEHQGIPHTAVASIGAVLLETSYGAADTLRSLTTSVDVAREHCLTWSLYEREGHHHHHH | soluble
3 | MSLHTPLEQQEIRYRKGDIIELTITDHAEKDKCFGKTTEGMGVMVSGILAPGDRVSAQIYKVKSRYLEARAIEVLEASPDRVEPVCPVFGSCGGCKWMHVSYEAQLRYKHKKVTDSLEHIGGFESPDVRPVLAAPDALHYRNKVEFSCSNMRYLLQSEIDSDQLAKPKTFALGFHAPGNFEKVLDLDTCYLAKECMNRVLNVLRDFAIERGLEPYAAKAHEGYLRNLMLRYSERHEQLMVNIVTSWYDKALMQALKERLEAAMPEQQMTLLNNVTTRKNTVATGEQEYVISGDGYVTERLGDLDFRISANSFFQTNTRQAETLYDQIIAVGGITPEDTVYDLYCGTGTITLYLARHCKQAIGIEVVESAVKDAEMNAELNGLSNTVFFQADLKNFHAMQEALEPYAKPRIIVTDPPRAGMHPKALDTMLKLQPERIVYVSCNPDNLARDGKEIAARGYRMTSAQPVDMFPQTNHIETVACFERAEGHHHHHH | soluble
4 | MSLIAVKPKKGHLLVAEPSITGDLSFNRSVVLLADHNCEGSVGFILNKPLGYTINDLIPEISARFKVYNGGPIEQDNLYFIHNIPQLIPNSIEIAEGIYWGGCFDSTRDLINQGKITQNNIRFFLGYSGWDAAQLQEELESNSWIISENNLHNKIIGKSSTDLWREKIKEQGGDYLIWSNAPENPILNEGHHHHHH | soluble
5 | MSLIDRTHELPLTQQCRILRLARSSMYYTPREVSAHDLALMRRMDELHLEHPFAGARMLRDLLRAEGHAIGRKHVGTLMRRMGIEALYRKPNTSRRRRGDEIYPYLLRDLKIERPNQAWAADITYIPMRKGFVYLFAIIDWSSRRVLAWRLSNTLTTDFCLDAVREALHRYGRPEIFNTDQGCQFTSTDFTDLLKDNGIQISMDGKGCWRDNVFVERLWKSVKYEEVYLKAYDSVAEAKAHLGAYLRFYNERRPHRAHDGRTPDQAYFGALRDETPLAAEGHHHHHH | not soluble
6 | MSLIEENLKQKIHDKFVAAKKNGHLKVTHAESKKLKDPQTTTQYWVTFAPSLALKPDANKNSDSKAEDPFANPDEELVVTEDLNGDGEYKLLLNKFPVVPEHSLLVTSEFKDQRSALTPSDLMTAYNVLCSLQGDKDDDVTCERYLVFYNCGPHSGSSQDHKHLQIMQMPEKFIPFQDVLCNGKDHFLPTFNAEPLQDDKVSFAHFVLPLPESSDQVDEDLLAMCYVSLMQRALTFFQDWTNESPELTKSYNVLLTKKWICVVPRSHAKSGPPLMLNINSTGYCGMILVKDREKLENLTEDPHLVDKSLLQCGFPNTAGQKPTEYHYEGHHHHHH | soluble
7 | MSLIEFNKKTNTLEQVQYKYTLQDVSEPNLYRDIFSYDEIPKCTFNHRKVPMAPPDEIWITDTTFRDGQQSRAPYTVEQIVHLYDLLHKLGGPKGIIRQCEFFLYSDRDKQAVYKCLERGYKYPEVTSWIRATKSDFQLAKDMGMKESGILVSCSDYHIFKKLNMTRKQALEHYMSIVKSAIEVGIRPRCHFEDITRADFYGFVVPFAIELRKLMEESGVPIKIRACDTLGYGVSYPGAALPRSVPGIIYGLRHYAGFPSELIEWHGHNDFYKAVCNAATAWLYGASAVNCSLLGIGERTGNTPLEAMVIEYAQLRGTTDSMDTTVITEIAEYYEKELGYQIPPRTPFVGKHFNVTQAGIHADGLLKDEEIYNIFDTAKLLNRPVGVAINQTSGLAGIAHWINSHFGLEGAKRIDKRDERIVKIKEWVDEQYKAGRVTSIGDDELEEVIRKLAPEIFDLALEGHHHHHH | soluble
8 | MSLIENLWRGICIISASEDAFSAGETIKEKLKSFEIPVVHYRYKDAEIETIWKCYDAIVFVMALEGATRIVCKYAKSKTEDPAIVCIDDKINYVIPLLGGHWGANDIARELSVILNSTPIITTAAEIKGKLSIERIANILIAKIINPENIVKINAALLRDESICIDGIDVNVNFPENIKVNSEECSYIISLRGDKEYKDKIVVWLKPLKISIGIGSKKDVKMEEIRDGIYKVLERLNLKRERIGIIASIREEVKKIADEFNVRFRLVNEEEINNFMNPCLTPPSKTLIEVGLKGVAEISALIAGGRNSKLILRKIAISRNSTIAVATYEGHHHHHH | soluble
9 | MSLIGKHFIITGATSGLGFAITNELLQRGAHVTILARNIDKFNRIKENYFKPEHINVIKCDLMQRKDIESLQKFLNTPINGFIYSSGVGYFKSISEHSTREVVETYEVNLTNFNLLYKVIQPQLVKAAYIVGISSQAALVSQANAAHYGASKAGFSAVLNALRLEQPELKVLNVQPGPIDTPFQKNADPTLKYFKNYRHMMIQPQQLAKQIVEGIILNKIEINQPSWMQEGHHHHHH | not soluble
10 | MSLIIRLNFITKYKVDMKRSHLSLIACLLASTQAYALSTDREQPVYIDSDSQQLDMKSNRVTFLGDVKLKQGSININADKLIVIRNAENGKIEEIEGYGNVATFSQLTDEGKTLYGEAKELYYKVRDDELVMINKAMLSQDDSEIRGSKIRYKISLQKLIADSDGKGRVSTVLQPQAIQEEGHHHHHH | soluble
11 | MSLIPVVLSGGAGTRLWPVSREGQPKPFMRLPDGQTLLGKTYRRAAGLLAGHGEIVTVTNREHYFQSKDQFHAARLGRHRGHFILEPTGRNTAPAIAVAALGLQAEHGDAAVLVVMPADHLIRNEEAFREAVGHAARLAVAGHLVTFGVVPDAAETGFGYIELGDRLDEQGAAKVRRFVEKPDEETRRRYVESGGFLWNSGMFCFTASTLVDELAQHAPALLEQARACLAASAAVKMADGIQHELAGEGFAALPDISIDYALMERSARVAVVPAAFDWSDIGSWGAMSALLDADAEGNRGSGDTLFVDTRNTFVQSDGRLVATVGVDDLVVVDTSDALLIARADRVQEVRRVVQRLKDEREGHHHHHH | soluble
12 | MSLIRSKYAFLQKLTRDLKMKSINIGEELEGATPPSVFIGSWNYPKVYAGPMIAPVQEEVEIFDSPERWIPERKTQEEIIDYRLNLVRGKQLVGVRDLDNHLVEKLQEISLSSGAIESEAQFRRKPRGLFFSEEQTPHGPSAVLENFEIENVKWDRELERAYHDTDLRAREAIVELHRKGTPFSAVQKALSVGALGEGKRRKLVPTRWSITACDSTLADHFLERVLEYEPIDTFRVHEFESLKNHYLILLTPSEWQYEWMEAFMKRDGRAMIFSDHETGKGKREYSRVGGCYYSAKMAVLDALDREEKQAGAIILREAYPGYVPLGVFNVRENVKNAMDTEPTMFNDLRGALEFIDSKLKLGLEAFRVRSNLLKELEVSRQTTLDSFFREGHHHHHH | not soluble
13 | MSLIRWCFTMKLAVIGGGDLQDSNHSPINERLIELTNKQYPKVLFIPTASHDDESYIKLFLDTFEKQLHCDVQILGIIADTPSKYEIDEMIQSADLIYLGGGNYIQMVTEWKEHKLDEKLLLALEQGTLIAGYSAGAMCWFTSSIRSDYEGSGYIESNGWGIVNKRFCPHYNQLNRMNAFHSFLQNHQGNIEGIALEDNCALYITEESFEIIGEPEKAWEFYMSDNKLIRQHFDITLKSYLEGHHHHHH | not soluble
14 | MSLITCSKCSRRAVIFQRHANRHLCKRHFIEDFERRVKLAVKKYDMIQKGDRIAIALSGGKDSVTLAFVLNKLYGFRSDLEFFAITIDEGIAGYRPPTVEIARKVTEQLGMEHLVVSFEENFGMTLDEMVKRGDKKPCTYCGVFRKYLLNRTAREMGATKLATGHNLDDETQTILLNFLNADMERMARLVPQRVQEGLVVRIKPFRYVYEKEVVVYGFLHELPMDFDECPYSHFPVRAAVRDFLYDFENKYPGRKFSVMSSFEKLIPCLKEIYPQIDLNRCERCGEPTPRRICQACKLLEELRGVDEGHHHHHH | not soluble
15 | MSLITIGITGGIGSGKSVVSRILLTLGIPVYDSDSRAKWLNDHSPVVRQALTGLIGSDLYENGILRRDRLAAAIFSSGDLLEQVNGIIHPEVKKDFCQWRSECESDLCAIESAILFSSGFNSLCDTVIRVDAPEKIRQERAMARDGSSAETMRQRMLSQEREQSLAKAGADHTVLNAPPHLLVPQVVRIIETVRTKRPNPPDEGHHHHHH | soluble
16 | MSLKAKIKELENNLERLRSDLQSKIQEIESIRSCKDSQLKWAQNTIDDTEMKMKSLLTELSNKETTIEKLSSEIENLDKELRKTKFQYKFLDQNSDASTLEPTLRKELEQIQVQLKDANSQIQAYEEIISSNENALIELKNELAKTKENYDAKIELEKKEKWAREEDLSRLRGELGEIRALQPKLKEGALHFVQQSEKLRNEVERIQKMIEKIEKMSTIVQLCKKKEMSQYQSTMKENKDLSELVIRLEKDAADCQAELTKTKSSLYSAQDLLDKHERKWMEEKADYERELISNIEQTESLREGHHHHHH | soluble
17 | MSLKAVIFDMDGVLIDSEPLHLDYAFKLFKELNITMTPNEYSKFIGTTSLYMWSNIKDTYNLENTVESLINKERNGFFEFLSSPNTNIKPIDHIPELLGALKENNFKTAVASSSPMRVIKYIINNFELAKQFNELVTGDYVERSKPNPDIFLYAAKKLDVSPEQCVVIEDSHNGVLAAKNAGMKCIGFKNPNSGNQDLSKADTIIHSFNEIDILNEGHHHHHH | soluble
18 | MSLKDMSYQAVMGRNNEIMKNAIGLDYSSFEQEGIGFDYEKMMSETGYTLQDIEAIQSQYAVGNTPLIELKNLTKLARKCAKEGKGARIFVKDEAMNASGSFKARRAATAVYHAKQMGYKGVIAATSGNYGAAVASQAAMQGLKCIIVQECYDSNGVGQPEIIEKARKCEAYGAEVVQLTVGPELFYTFLVLLEETGYFNASLYSPFGIAGVETLGYELAIQFREKYKKDPDIVVCTNAGGGNLTGTARGLIKAGSINTKVVGASVDLKGLHMASDNQFNKKSFTTGHTGFGIPYCTWPDRSDVPRSAARPLRYMDRYVLVKQGEVFYTTELLAQLEGIERGPAGNTSLAAAFSLAQELDEDKAIVVQETEYTGAGKHICPQLTFARENGIDIKFGNPREEIAGVNLILPERPELLKCVDIDMNKIRNSFIKNCISNNHIDNIDKLSNRDIEFLMEEVKSSRDFVVDVLNNLEGHHHHHH | not soluble
19 | MSLKFMSRFTFKQFHINQNSCAMKVGTDGILLGAWADVKHCKNILDMGCGTGLLALMLAQRTEENCQIQAVELDPIAAKQAQENINNSVWKNRIQLTQVDIQHFLQTTEQTFDLIVANPPYFEQGIACKNEERELARYTKQSHLNWLEWAATRLSENGRISFVLPYEAGKTLTKSTALFCIKQTNVITKIGKTPQRMLLTFAKQPEVLMQDQLVIYDADNQYTEAFIELTKDFYLKEGHHHHHH | soluble
